Patent US20050148508
Positions count from the first letter of the chain named.

What was measured:
[1] = tested on: T1, pigment epithelium derived factor (PEDF) isolated from human plasma
T1 sequence: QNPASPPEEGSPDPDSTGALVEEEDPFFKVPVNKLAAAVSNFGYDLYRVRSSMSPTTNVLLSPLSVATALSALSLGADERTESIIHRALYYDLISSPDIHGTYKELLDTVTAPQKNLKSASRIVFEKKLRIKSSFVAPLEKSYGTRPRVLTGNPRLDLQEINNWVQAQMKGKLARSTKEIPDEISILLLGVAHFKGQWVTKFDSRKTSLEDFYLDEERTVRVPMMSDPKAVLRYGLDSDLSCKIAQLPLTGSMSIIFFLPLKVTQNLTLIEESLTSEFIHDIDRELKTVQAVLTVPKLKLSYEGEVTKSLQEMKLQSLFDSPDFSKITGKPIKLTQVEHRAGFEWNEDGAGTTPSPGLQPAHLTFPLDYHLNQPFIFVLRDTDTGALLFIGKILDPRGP

[2] = target: T2, recombinant human PEDF expressed in CHO cells (UniProt P36955)
T2 sequence: T1 sequence with M53T, D78E, E79Q

protein kinase CK2 holoenzyme was tested, and the “phosphorylation by CK2 in the presence of poly-L-lysine (autoradiography)” value [1] was “both rPEDF and pIPEDF were phosphorylated by CK2 in the presence of poly-L-lysine”, the stoichiometry of phosphorylation [1] was “˜0.02 mol of phosphate per mol of plasma PEDF” and the “stoichiometry of phosphorylation, plasma PEDF heat-treated (15 min at 56° C.) before phosphorylation” value [1] was “reached a plateau at ˜0.12 mol/mol”. The “phosphorylation by CK2 in the presence of poly-L-lysine (autoradiography)” value [2] was “both rPEDF and pIPEDF were phosphorylated by CK2 in the presence of poly-L-lysine”, the stoichiometry of phosphorylation [2] was “˜0.1 mol of phosphate per mol of rPEDF” and the “stoichiometry of phosphorylation, rPEDF heat-treated (15 min at 56° C.) before phosphorylation” value [2] was “reached a plateau at ˜0.25 mol/mol”.
